Consider 2 molecules from paper PMC8901441, “The interplay between BAX and BAK tunes apoptotic pore growth to control mitochondrial-DNA-mediated inflammation” (Molecular Cell, 2022).

Series [1] deals with BAK-488 (full-length mouse BAK L192K, F193S, Y196D, C154S, labelled with Atto 488) (mouse) (UniProt O08734). Put plainly: single-molecule TIRF brightness (stoichiometry) analysis; 1, 5 or 10 nM labelled protein incubated 1 h with EPC:CL 8:2 LUVs (150 mM NaCl, 10 mM HEPES/KOH, pH 7.4), activated by heat (43°C), or 1 nM BAK-488 by 2 nM cBid; proteoliposomes diluted with LUVs and fused into supported lipid bilayers on glass; corrected for partial labelling.

Series [2] concerns the molecule itself. The description is as above.

In the case of “BAK-488 (full-length mouse BAK L192K, F193S, Y196D, C154S, labelled with Atto 488) (from UniProt O08734 1-209) (natural protein)”, in series [1], the stoichiometry N came out at 2.

B1: BAX-488 (single-cysteine, full-length human BAX S4C, C62S, C126S, labelled with Atto 488) (natural protein, UniProt Q07812 1-192, looked up)
chain: MDGCGEQPRGGGPTSSEQIMKTGALLLQGFIQDRAGRMGGEAPELALDPVPQDASTKKLSESLKRIGDELDSNMELQRMIAAVDTDSPREVFFRVAADMFSDGNFNWGRVVALFYFASKLVLKALSTKVPELIRTIMGWTLDFLRERLLGWIQDQGGWDGLLSYFGTPTWQTVTIFVAGVLTASLTIWKKMG
modifications: Atto 488 covalently attached to the single cysteine
notes: BAX, human, single-cysteine mutant (S4C, C62S, C126S); Plasmid pTYB1_hBAX-S4C,C62S, C126S from a previous study (doi 10.1038/ncomms9042); Labelling efficiency 84%; also called hBAX-S4C,C62S, C126S
As to B1, the “stoichiometry N” value in series [2] is no more than 10.

What is called stoichiometry N is the number of molecules, sites or subunits per partner or assembly.
